We go through one molecule from patent US20170152228A1, “SCREENING METHODS FOR THE BINDING AFFINITY OF CHEMICAL […] TO BIOLOGICAL MOLECULES AND NEDD4-1 […] THE SCREENING METHODS” (Northwestern University, published 2017).

For orientation: Kd means the free concentration of one partner at which half of the binding sites on the other are occupied at equilibrium, for simple one-to-one binding.

The experiment addresses ubiquitin (Homo sapiens (Human), UniProt P0CG48). The experiment can be described thus: not stated how the value was obtained. It is named in the context of the fluorescence polarization assay. (Polarisation of emitted light reports the rotation of a fluorescent probe.)

B1: NEDD4-1 HECT domain (enzyme)
chain: GPLGSRDYKRKYEFFRRKLKKQNDIPNKFEMKLRRATVLEDSYRRIMGVKRADFLKARLWIEFDGEKGLDYGGVAREWFFLISKEMFNPYYGLFEYSATDNYTLQINPNSGLCNEDHLSYFKFIGRVAGMAVYHGKLLDGFFIRPFYKMMLHKPITLHDMESVDSEYYNSLRWILENDPTELDLRFIIDEELFGQTHQHELKNGGSEIVVTNKNKKEYIYLVIQWRFVNRIQKQMAAFKEGFFELIPQDLIKIFDENELELLMCGLGDVDVNDWREHTKYKNGYSANHQVIQWFWKAVLMMDSEKRIRLLQFVTGTSRVPMNGFAELYGSNGPQSFTVEQWGTPEKLPRAHTCFNRLDLPPYESFEELWDKLQMAIENTQGFDGVD
In turn, B1 returned a Kd of 11 µM. This counts as double-digit micromolar.
